# PMC5346138, “High-affinity RNA binding by a hyperthermophilic single-stranded DNA-binding protein”
# Residue numbers refer to the chain shown, from its start. Names may count otherwise.
# T1: SsoSSB (single-stranded DNA-binding protein) (Sulfolobus solfataricus, UniProt Q97W73 1-148)
# T1 sequence: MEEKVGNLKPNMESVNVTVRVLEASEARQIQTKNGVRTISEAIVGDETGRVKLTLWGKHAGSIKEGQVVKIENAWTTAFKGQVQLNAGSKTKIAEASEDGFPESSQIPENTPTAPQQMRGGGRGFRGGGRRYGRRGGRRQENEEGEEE
# T2: SsoSSB A114C-Alexa Fluor 647 (Sulfolobus solfataricus, UniProt Q97W73 1-148, A114C)
# T2 sequence: T1 sequence with A114C
# T3: SsoSSB OB domain (15N) (Sulfolobus solfataricus, UniProt Q97W73 1-114)
# T3 sequence: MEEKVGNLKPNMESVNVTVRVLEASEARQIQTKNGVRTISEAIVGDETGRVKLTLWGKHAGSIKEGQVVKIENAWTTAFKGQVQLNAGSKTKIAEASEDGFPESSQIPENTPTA
# Legend:
# [1] = target: T1, SsoSSB (single-stranded DNA-binding …); experiment: ITC; apparent Kd, 50 C; text says 21U, Fig. 1 legend says poly-rA; ITC: 20 mM MES pH 6.5, 100 mM K-glutamate, 1 mM MgCl2, 50 C; PIFE: 50 mM Tris-HCl pH 8.0, 10 mM KCl; smFRET: same buffer plus Trolox and oxygen scavenger, room; details: protein: recombinant
# [2] = target: T1, SsoSSB (single-stranded DNA-binding …); experiment: fluorescence (PIFE); 10 nM DNA, 10 mM KCl; Hill 1.6 +/- 0.5; ITC: 20 mM MES pH 6.5, 100 mM K-glutamate, 1 mM MgCl2, 50 C; PIFE: 50 mM Tris-HCl pH 8.0, 10 mM KCl; smFRET: same buffer plus Trolox and oxygen scavenger, room; details: protein: recombinant, label: 5' biotin, 3' Cy3
# [3] = target: T2, SsoSSB A114C-Alexa Fluor 647; experiment: single-molecule FRET; 1-2 nM protein; dissociation 3.8 +/- 0.8 s-1, association 0.06 +/- 0.01 s-1; ITC: 20 mM MES pH 6.5, 100 mM K-glutamate, 1 mM MgCl2, 50 C; PIFE: 50 mM Tris-HCl pH 8.0, 10 mM KCl; smFRET: same buffer plus Trolox and oxygen scavenger, room; details: protein: recombinant; tags: Alexa Fluor 647 label; chain copies: 2; label: 5' biotin, 3' Cy3; single-stranded
# [4] = target: T1, SsoSSB (single-stranded DNA-binding …); experiment: FRET hairpin melting; hairpin disrupted at 20 nM SsoSSB; ITC: 20 mM MES pH 6.5, 100 mM K-glutamate, 1 mM MgCl2, 50 C; PIFE: 50 mM Tris-HCl pH 8.0, 10 mM KCl; smFRET: same buffer plus Trolox and oxygen scavenger, room; details: protein: recombinant; label: 5' Cy5, 3' Cy3; hairpin with single-nucleotide bulge
# SsoSSB OB domain (15N) [5] = target: T3, SsoSSB OB domain (15N); experiment: NMR HSQC; 1:1, 298 K; the RNA complex is only a HADDOCK model; ITC: 20 mM MES pH 6.5, 100 mM K-glutamate, 1 mM MgCl2, 50 C; PIFE: 50 mM Tris-HCl pH 8.0, 10 mM KCl; smFRET: same buffer plus Trolox and oxygen scavenger, room; details: protein: recombinant; single-stranded
# SsoSSB OB domain (15N) [6] = target: T3, SsoSSB OB domain (15N); experiment: NMR HSQC; 1:1, 298 K; 2MNA is an earlier structure; ITC: 20 mM MES pH 6.5, 100 mM K-glutamate, 1 mM MgCl2, 50 C; PIFE: 50 mM Tris-HCl pH 8.0, 10 mM KCl; smFRET: same buffer plus Trolox and oxygen scavenger, room; details: protein: recombinant; single-stranded
# [7] = target: T1, SsoSSB (single-stranded DNA-binding …); experiment: fluorescence (PIFE); ~0.7 nM RNA; Hill 1.7 +/- 0.2; ITC: 20 mM MES pH 6.5, 100 mM K-glutamate, 1 mM MgCl2, 50 C; PIFE: 50 mM Tris-HCl pH 8.0, 10 mM KCl; smFRET: same buffer plus Trolox and oxygen scavenger, room; details: protein: recombinant, label: 5' biotin, 3' Cy3
# [8] = target: T1, SsoSSB (single-stranded DNA-binding …); experiment: fluorescence (PIFE); 10 nM RNA, 10 mM KCl; Hill 1.8 +/- 0.3; ITC: 20 mM MES pH 6.5, 100 mM K-glutamate, 1 mM MgCl2, 50 C; PIFE: 50 mM Tris-HCl pH 8.0, 10 mM KCl; smFRET: same buffer plus Trolox and oxygen scavenger, room; details: protein: recombinant, label: 5' biotin, 3' Cy3
# [9] = target: T2, SsoSSB A114C-Alexa Fluor 647; experiment: single-molecule FRET; 1-2 nM protein; dissociation 6 +/- 1 s-1, association 0.12 +/- 0.08 s-1; ITC: 20 mM MES pH 6.5, 100 mM K-glutamate, 1 mM MgCl2, 50 C; PIFE: 50 mM Tris-HCl pH 8.0, 10 mM KCl; smFRET: same buffer plus Trolox and oxygen scavenger, room; details: protein: recombinant; tags: Alexa Fluor 647 label; label: 5' biotin, 3' Cy3; single-stranded
# [10] = target: T1, SsoSSB (single-stranded DNA-binding …); experiment: ITC; apparent Kd, 50 C; text says 21T, Fig. 1 legend says poly-A DNA; ITC: 20 mM MES pH 6.5, 100 mM K-glutamate, 1 mM MgCl2, 50 C; PIFE: 50 mM Tris-HCl pH 8.0, 10 mM KCl; smFRET: same buffer plus Trolox and oxygen scavenger, room; details: protein: recombinant
binder,measurement,setting,value
UUUUUUUUUUUUUUUUUUUUU (ssRNA) [R21U (21U RNA)],Kd,[1],93 ± 0.4 nM
CCCCCCCCCCCC (ssDNA) [C12ssDNA],Kd,[2],8.2 ± 0.9 nM
same,binding result,[3],binds
UGAUAAUCUCUUAUAGAAUUGAAAGU (structured_RNA) [RNA Hairpin],binding result,[4],binds
UUUUUU (ssRNA) [6U RNA],binding result,SsoSSB OB domain (15N) [5],binds
TTTTTT (ssDNA) [6T ssDNA],binding result,SsoSSB OB domain (15N) [6],binds
CCCCCCCCCCCC (ssRNA) [C12ssRNA],Kd,[7],6 ± 1 nM
same,Kd,[8],4.2 ± 0.6 nM
same,binding result,[9],binds
TTTTTTTTTTTTTTTTTTTTT (ssDNA) [21T DNA],Kd,[10],95 ± 0.6 nM
